B1: OR4K15 (parent)
chain: GUUAACGGUCAUAGGCCAUGGAAACUAGGAGCACCAUUUCGCUGCCAGUGAAGAAAUGAACAAAGAAAAUCUGGGCCAGGCAGGCAUCAAAAGAAAUAGUCUUGCGCUCAACCAGAAAGUCUGUAAUCAUUUUAAGGGUA

Variants of: B1
Test: self-cleavage, relative activity (ratio to wild type); higher = more cleavage; in vitro, sequencing; the parent is a self-cleaving ribozyme

Variant | self-cleavage
A82U A94C | 0.06
U87A A89C | 0.99
U102C C128U | 1.62
U43A A90U | 1.74
A52G U97G | 1.31
A59C U127A | 1.3
U39A | 1.35
A23C G83A | 2.28
A36C A78C | 0.32
A116U U120C | 0.15
A33U A126G | 1.4
C77U A114U | 0.14
A96G A129U | 1.08
U57A U133C | 1.08
A22G U139A | 1.14
A98C U127C | 1.94
A22G A59U | 1.11
A56G A68C | 2.25
A56C A117U | 0.96
A69G G75C | 0.16
A69U A95G | 2.37
A24C A47G | 1.46
U49A A78U | 0.33
U72C A98G | 0.03

Variant | self-cleavage
A59G U124C | 0.78
U38C C113U | 0.14
A82U U97A | 0.34
A68G A89C | 1.1
A66G G137A | 2.07
A89U U108C | 0.02
A22U U87C | 0.88
A13U A91U | 1.34
G65U G83U | 0.44
U49G A69G | 0.88
A129C U130C | 0.63
A66G A90U | 1.31
A22G A60G | 0.94
U38C A94U | 2.15
U26A C105A | 0.02
A22U A36U | 1.53
A4G U100C | 1.42
A51G A86U | 1.56
C45G U131C | 0.41
U26G A66G | 1.09
U38A U102C | 1.99
U72G A78G | 0.39
A55U A114U | 0.03
A67G A110U | 1.46

Variant | self-cleavage
U87G A90G | 0.82
A47U | 0.72
A55U U132C | 2.21
G21A A51G | 1.66
A4G C121A | 2.03
G7U A60U | 2.4
A27U G53A | 1.86
A13U A116U | 0.25
A18G A78U | 0.35
U39C A140U | 1.62
A52C U108C | 0.03
A54G G84C | 0.61
A23G G84U | 0.21
A59U C61U | 1.53
G41A U130C | 0.99
A11G A126U | 1.17
U70C | 0.47
A22U C25U | 0.77
A90G A96G | 1.25
A116G U130A | 0.51
A55G U97C | 1.27
U127C | 0.68
A5C A110G | 0.33
A11C A13G | 0.93

Variant | self-cleavage
A23U U100C | 2.74
C6A U127C | 0.49
A23G U43C | 1.38
C10A A68G | 0.85
G28A C128A | 1.34
A36C U127C | 1.51
A82U | 0.14
G41A A125G | 0.77
U37C U57G | 0.5
U87G A125G | 0.07
A51G A117G | 2.07
A18G A89U | 1.48
A47U A78C | 0.08
A89G A110G | 0.12
G28U A47G | 2.28
G7A A82U | 0.14
U87C U131C | 1.07
U19C U49A | 1.38
G80A A116G | 0.03
A63G U100C | 2.31
G20A A69G | 1
A5U U37G | 1
A96U U108C | 0
U108G A126G | 0

Variant | self-cleavage
A92G U131A | 1.33
A11G C101U | 0.38
A11G C88U | 1.54
G65A U130C | 0.71
U39C U124C | 1.25
G20A | 1.55
U37C A68U | 1.5
A54C A95G | 2.18
C34G | 1.98
G7C A47U | 1.4
A47C U70C | 0.23
C46U A89G | 2.15
U37G | 1.62
C34U U43C | 1.48
A4G U122A | 1.37
U2C U39G | 1.43
A13U U122C | 0.56
A18G U49C | 1.43
A98U A126G | 1.86
A36G A118G | 1.47
A30G A90G | 1.37
A59C U100C | 1.22
A56G U120C | 0.89
A5C A95G | 0.99

Variant | self-cleavage
A116G U131C | 0.27
A51G G106A | 0
A94G U122C | 1.21
U103C U122A | 1.14
A33G C113U | 0.02
C45G A51G | 1.57
A59U A140G | 2.05
U70C A98U | 0.72
A22U A67G | 1.87
A33G A69G | 0.28
A78G G138A | 0.2
U100A A140U | 0.83
A90U U120C | 1.63
A94G A117U | 0.67
A5G A56G | 0.66
C35U U70C | 0.58
U19C A111G | 0.03
A116C U130C | 0.06
A95U | 1.65
U38A U120C | 1.12
A18G A47G | 1.14
G83A A118G | 1.41
U70A A78G | 0.33
U19C A114G | 0.39

Variant | self-cleavage
A4G A69U | 1.14
U38A A117G | 2.22
U49A A62U | 1.92
A96G C113U | 0.06
U70C A111G | 0.02
A33G A60G | 0.98
A47U A54G | 0.67
A23G A82G | 0.57
A5U G21A | 1.25
U38C C112A | 0
A54G C128U | 1.08
G28U A60G | 1.57
U12G U100C | 1.76
A18G U124A | 0.9
U43C A59U | 1.48
U2A U49A | 1.64
A23U A47U | 1.04
G41A A111G | 0.02
G75C U97C | 0.12
C113U U120C | 0.04
A67U A134G | 1.09
U70C A110G | 0.06
G65A A117U | 0.6

From the RNAGym collection of RNA variant scans (doi:10.7554/elife.90254)
